For assay [1], the target named is GPR20-EGFP protein comprising human GPR20 linked at its C-terminus to EGFP (human, UniProt Q99678 1-358). Put plainly: cell-based or functional assay.
Assay [2] concerns the target T1, human/mouse chimeric GPR20 in which EC2 of human GPR20 was substituted with EC2 of mouse GPR20 (human, UniProt Q99678 1-358).
T1 construct: also called hGPR20_mECD2
Put plainly: Cell-ELISA on 293a cells transiently expressing hGPR20_mECD2. As to the method: (§1) The cells were left standing at 4° C. for 1 hour. […] The cells were left standing at 4° C. for 1 hour. The cells in the wells were washed three times with PBS (+) supplemented with 5% FBS, and thereafter, OPD chromogenic solution (which had been prepared by dissolving o-phenylenediamine dihydrochloride (Wako Pure Chemical Industries, Ltd.) and H₂O₂ in an OPD solution (0.05 M trisodium citrate, 0.1 M disodium hydrogen phosphate 12-water; pH 4.5), so that the substances became 0.4 mg/ml and 0.6% (v/v), respectively) was added in an amount of 100 μL/well to the wells. A coloring reaction was carried out with occasional stirring. Thereafter, 1 M HCl was added to the plate (100 μL/well) to terminate the coloring reaction, followed by measurement of the absorbance at 490 nm using a plate reader (ENVISION: PerkinElmer, Inc.).

Assay [3] addresses T2, human GPR20 (human, UniProt Q99678 1-358). Put plainly: cell-based or functional assay.
A further assay deals with T3, mouse GPR20 (mouse, UniProt Q8BYC4 1-358).
T3 construct: whole, on cells; also called mGPR20; mouse GPR20 (NP_775541)
Put plainly: Cell-ELISA on 293a cells transiently expressing mouse GPR20. As to the method:
as §1

In assay [4] the target is T2, human GPR20. Put plainly: flow cytometry on 293T cells transfected with pcDNA3.1-hGPR20. As to the method:
The cells were cultured overnight under conditions of 37° C. and 5% CO₂, and thereafter, a cell suspension was prepared. To the obtained cell suspension, each humanized anti-GPR20 antibody was added, and the obtained mixture was left standing at 4° C. for 1 hour. […] The cells were left standing at 4° C. for 1 hour. The cells were washed twice with PBS supplemented with 5% FBS, and then re-suspended in PBS supplemented with 5% FBS, followed by detection using a flow cytometer (BD FACSCant II; BD Biosciences). The data was analyzed using Flowjo (Tree Star, Inc.). […] In the histograms of FIG. 24, the abscissa depicts the fluorescence intensity of PE indicating the amount of the antibody bound, and the ordinate depicts a cell count.

T3 sequence (Q8BYC4 whole entry): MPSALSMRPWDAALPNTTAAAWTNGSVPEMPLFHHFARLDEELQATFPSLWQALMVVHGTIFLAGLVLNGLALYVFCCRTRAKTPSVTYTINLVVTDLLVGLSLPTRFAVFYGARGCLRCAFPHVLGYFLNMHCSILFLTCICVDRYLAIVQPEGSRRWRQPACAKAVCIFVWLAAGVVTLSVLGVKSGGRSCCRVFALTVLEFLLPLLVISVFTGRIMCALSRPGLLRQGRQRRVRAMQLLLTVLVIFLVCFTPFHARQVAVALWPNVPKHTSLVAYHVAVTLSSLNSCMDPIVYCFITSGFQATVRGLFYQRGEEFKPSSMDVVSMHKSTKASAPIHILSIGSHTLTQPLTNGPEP
T1 sequence (Q99678 other isoform, or with tags, fused parts or gaps mutant): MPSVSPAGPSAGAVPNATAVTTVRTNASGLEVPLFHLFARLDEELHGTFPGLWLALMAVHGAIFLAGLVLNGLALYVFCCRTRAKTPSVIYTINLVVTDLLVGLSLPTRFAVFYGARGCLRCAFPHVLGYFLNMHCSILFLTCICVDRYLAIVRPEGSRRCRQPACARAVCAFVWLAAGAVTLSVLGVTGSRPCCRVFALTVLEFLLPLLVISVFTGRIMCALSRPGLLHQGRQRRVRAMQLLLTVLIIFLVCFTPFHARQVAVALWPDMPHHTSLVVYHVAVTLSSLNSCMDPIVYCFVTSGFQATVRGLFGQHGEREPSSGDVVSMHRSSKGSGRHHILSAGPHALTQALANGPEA
GPR20-EGFP protein comprising human GPR20 linked at its C-terminus to EGFP, sequence (Q99678 whole entry): as the sequence (Q99678 other isoform, or with tags, fused parts or gaps mutant) above, with F113Y counted along it
T2 sequence (Q99678 whole entry): as the sequence (Q99678 other isoform, or with tags, fused parts or gaps mutant) above, with F113Y counted along it

B1: rat anti-GPR20 antibody 04-079 (antibody, rat IgG2b, V domains shown)
VH: QVQLQQSGAELAKPGSSVKISCKASGYTFTSYYITWIKQTTGQGLKYIGYINPGSGHTNYNEKFKGKATLTVDKSSSTAFMQLSSLTPDDSAVYYCARGAGGFLRIISKFDYWGQGVMVTVSS
VL: DTVLTQSPALAVSLGQRVTISCRASKSVSTYMHWYQQRSGQQPKLLIYSASNLESGVPSRFSGSGSGTDFTLTIDPVKADDITNYYCQQSNELPYTFGAGTKLELKR
notes: Rat IgG2b, kappa; also called 04-079 antibody
As to B1, the “Cell survival rate (%) in internalization activity evaluation” value (“Cell survival rate (%)” below) in assay [1] amounted to 62%. In addition, the binding result (in assay [2]; in the assay with mouse GPR20) was “no binding” throughout. For the same molecule, in the assay with human GPR20 [3], the “cell proliferation suppression rate (Rat-ZAP internalization screening)” value (“cell proliferation suppression rate” below) was no less than 60%.

B2: antibody-drug conjugate (12) h046-H10/L6-ADC1 (antibody, human IgG1, kappa, V domains shown)
VH: QVQLQQSGAELAKPGSSVKVSCKASGYTFTSYYISWIKQTTGQGLKYIGFINPGSGHTNYNEKFKGKATLTVDKSSSTANMQLSSLTPDDSAIYYCARGAGGFLRIITKFDYWGQGVMVTVSS
VL: DTQLTQSPSSLSASVGDRVTITCRASKSVSTYIHWYQQKPGKQPKLLIYSASDRESGVPSRFSGSGSGTDFTLTISSLQPEDFANYYCQQINELPYTFGQGTKVEIKR
modifications: ADC1 exatecan drug linker on the interchain-disulfide cysteine, thioether bond; position not given; ADC1 exatecan drug linker (maleimidocaproyl-GGFG-NH-CH2-O-CH2-C(=O)-(NH-DX)) on cysteine sulfhydryls of reduced interchain disulfides, thioether bond; positions not given
notes: average drug number 5.5 (E) / 8.0 (F)
In the case of B2, the binding result with human GPR20 [4] is listed as “binds”.

B3: humanized h046-H10/L6 (antibody, human IgG1, kappa, V domains shown)
VH: QVQLQQSGAELAKPGSSVKVSCKASGYTFTSYYISWIKQTTGQGLKYIGFINPGSGHTNYNEKFKGKATLTVDKSSSTANMQLSSLTPDDSAIYYCARGAGGFLRIITKFDYWGQGVMVTVSS
VL: DTQLTQSPSSLSASVGDRVTITCRASKSVSTYIHWYQQKPGKQPKLLIYSASDRESGVPSRFSGSGSGTDFTLTISSLQPEDFANYYCQQINELPYTFGQGTKVEIKR
notes: the claims and summary say 20 to 474
B3: the binding result with human GPR20 [4] is given as “binds”.

B4: rat anti-GPR20 antibody 04-126 (antibody, rat IgG2b, V domains shown)
VH: QVQLRQSGAELAKPGSSVKISCKASGYTFTSYYIIWMKQTAGQGLQYVGYINPGSGHTNYNEKFKGKATLTVDKSSSTAFMQLSSLTPDDSAVYYCARGTGGFLRIISKFDYWGQGVMVTVSS
VL: DTVLTQSPALAVSLGQRVTISCRASKSVSTYMHWYQQRSGQQPKLLIYSASTLESGVPSRFSGSGSGTDFTLTIDPVEADDIANYYCQQSNELPYTFGAGTKLELKR
notes: Rat IgG2b, kappa; also called 04-126 antibody; 04-0126
With B4, the “Cell survival rate (%)” value in assay [1] worked out at 54%. Besides, the binding result (in assay [2]; with mouse GPR20) was “no binding” each time. The “cell proliferation suppression rate” value in the assay with human GPR20 [3] is no less than 60%.

B5: rat anti-GPR20 antibody 04-046 (antibody, rat IgG2b)
heavy: QVQLQQSGAELAKPGSSVKISCKASGYTFTSYYISWIKQTTGQGLKYIGFINPGSGHTNYNEKFKGKATLTVDKSSSTAFMQLSSLTPDDSAIYYCARGAGGFLRIITKFDYWGQGVMVTVSSAQTTAPSVYPLAPGCGDTTSSTVTLGCLVKGYFPEPVTVTWNSGALSSDVHTFPAVLQSGLYTLTSSVTSSTWPSQTVTCNVAHPASSTKVDKKVERRNGGIGHKCPTCPTCHKCPVPELLGGPSVFIFPPKPKDILLISQNAKVTCVVVDVSEEEPDVQFSWFVNNVEVHTAQTQPREEQYNSTFRVVSALPIQHQDWMSGKEFKCKVNNKALPSPIEKTISKPKGLVRKPQVYVMGPPTEQLTEQTVSLTCLTSGFLPNDIGVEWTSNGHIEKNYKNTEPVMDSDGSFFMYSKLNVERSRWDSRAPFVCSVVHEGLHNHHVEKSISRPPGK
light: DTVLTQSPALAVSLGQRVTISCRASKSVSTYIHWYQQRSGQQPKLLIYSASNLESGVPSRFSGSGSGTDFTLTIDPVEPDDIANYYCQQINELPYTFGAGTKLELKRADAAPTVSIFPPSTEQLATGGASVVCLMNNFYPRDISVKWKIDGTERRDGVLDSVTDQDSKDSTYSMSSTLSLTKADYESHNLYTCEVVHKTSSSPVVKSFNRNEC
notes: Rat IgG2b, kappa; also called 04-046 antibody
Regarding B5, the “Cell survival rate (%)” value in assay [1] amounted to 57%. The binding result (in assay [2]; with mouse GPR20) was “no binding” in each case. The “cell proliferation suppression rate” value with human GPR20 [3] was no less than 60%.

B6: humanized h046-H4b/L7 (antibody, human IgG1, kappa)
heavy: not shown
light: DTQLTQSPSSLSASVGDRVTITCRASKSVSTYIHWYQQKPGKQPKLLIYSAGNLESGVPSRFSGSGSGTDFTLTISSLQPEDFANYYCQQINELPYTFGQGTKVEIKRTVAAPSVFIFPPSDEQLKSGTASVVCLLNNFYPREAKVQWKVDNALQSGNSQESVTEQDSKDSTYSLSSTLTLSKADYEKHKVYACEVTHQGLSSPVTKSFNRGEC
notes: Humanized IgG1 / kappa
As for B6, the binding result in the assay with human GPR20 [4] is given as “binds”.

B7: antibody-drug conjugate h046-H4b/L7-ADC1 (antibody, human IgG1, kappa)
heavy: not shown
light: DTQLTQSPSSLSASVGDRVTITCRASKSVSTYIHWYQQKPGKQPKLLIYSAGNLESGVPSRFSGSGSGTDFTLTISSLQPEDFANYYCQQINELPYTFGQGTKVEIKRTVAAPSVFIFPPSDEQLKSGTASVVCLLNNFYPREAKVQWKVDNALQSGNSQESVTEQDSKDSTYSLSSTLTLSKADYEKHKVYACEVTHQGLSSPVTKSFNRGEC
modifications: ADC1 exatecan drug linker on the interchain-disulfide cysteine, thioether bond; position not given; ADC1 exatecan drug linker (maleimidocaproyl-GGFG-NH-CH2-O-CH2-C(=O)-(NH-DX)) on cysteine sulfhydryls of reduced interchain disulfides, thioether bond; positions not given
notes: also called antibody-drug conjugate (3); antibody-drug conjugate (4)
With B7, the binding result with human GPR20 [4] is “binds”.

The record behind these values is patent US20190225686A1 (Daiichi Sankyo, published 2019).
